This is an account of results in patent US20250223314A1.

A word on the Kd: it is the free concentration of one partner at which half of the binding sites on the other are occupied at equilibrium, for simple one-to-one binding. Low values mean tighter binding, high ones weaker binding.

The experiment has as its target Tocilizumab (IgG1). The experiment in a line: SPR (Biacore), tocilizumab immobilised via EDC/NHS on CM5 chip, receptor as analyte. For orientation: In SPR one partner is held on a chip, and binding of the other changes the refractive index at the surface.

Take “Deglycosylated D2 (Man9 deglycosylated using EndoH) (receptor)”: the Kd turned out to be 17.6 nM. Regarding “Man9 (Pichia-produced FcγRIIIa domain 2 ligand with Mannose 9 glycosylation) (receptor)”, the Kd was 0.478 nM.
